Measured values published in patent US20090275637, “PROTEIN TYROSINE PHOSPHATASE INHIBITORS” (published 2009).

What was measured:
[1] = molecular target: T1, PTP1B (Homo sapiens, UniProt P18031 P18031:1-321); test: inhibition; 20 mM NaCl, 5 uM DiFMUP; p151 quotes about 600 pM; details: tags: N-terminal His6; R&D Systems 1366-PT-050; hairpin
T1 sequence: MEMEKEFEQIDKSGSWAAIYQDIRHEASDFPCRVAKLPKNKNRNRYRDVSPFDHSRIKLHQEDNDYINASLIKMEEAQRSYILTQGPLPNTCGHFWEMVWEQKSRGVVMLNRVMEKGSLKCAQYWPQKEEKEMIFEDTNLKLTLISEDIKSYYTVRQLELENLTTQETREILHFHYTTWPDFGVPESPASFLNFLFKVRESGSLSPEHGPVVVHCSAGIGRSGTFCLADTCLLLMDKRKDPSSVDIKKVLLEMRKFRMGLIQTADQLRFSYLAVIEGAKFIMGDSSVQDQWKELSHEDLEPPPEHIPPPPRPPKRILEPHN

[2] = molecular target: T1, PTP1B; test: inhibition; 125 mM NaCl, DiFMUP, competitive; 20 nM from Lineweaver-Burk fit; details: tags: N-terminal His6; R&D Systems 1366-PT-050; hairpin
Protocol: In parallel with a no-RNA control, the activity in the presence of 30 nM C13M21 was measured in duplicate for varying concentrations of DiFMUP. […] Fitting of the data in the presence of C13M21 gave a Kₘ*of 63 μM, which equates to a Kᵢ of 20 nM. The fitted Vₘₐₓ in the presence of the inhibitor was equal to or slightly greater than the no-RNA Vₘₐₓ, indicating the presence of competitive inhibition.
(§1) To further refine the estimate of Kᵢ, an assay was run at a fixed DiFMUP concentration of 20 μM with the C13M21 and the full-length C13 nucleic acid ligand, each premixed with the PTP1B at […] in the 125 mM NaCl buffer. […] Nonlinear fitting gives an estimate of the IC₅₀ of […]. Based on a Kₘ of 25 μM, and assuming competitive inhibition, this gives a Kᵢ of 45 nM for C13M21 and a Kᵢ of 7 nM for the full-length nucleic acid ligand at 125 mM NaCl concentration.

[3] = molecular target: T2, PTP1B catalytic domain (321 residues), GST fusion (Homo sapiens, UniProt P18031 P18031:1-321); test: filter; 20 mM HEPES pH 7.2, 5 mM MgCl2, 125 mM NaCl, room temperature; details: tags: GST; hairpin
T2 sequence: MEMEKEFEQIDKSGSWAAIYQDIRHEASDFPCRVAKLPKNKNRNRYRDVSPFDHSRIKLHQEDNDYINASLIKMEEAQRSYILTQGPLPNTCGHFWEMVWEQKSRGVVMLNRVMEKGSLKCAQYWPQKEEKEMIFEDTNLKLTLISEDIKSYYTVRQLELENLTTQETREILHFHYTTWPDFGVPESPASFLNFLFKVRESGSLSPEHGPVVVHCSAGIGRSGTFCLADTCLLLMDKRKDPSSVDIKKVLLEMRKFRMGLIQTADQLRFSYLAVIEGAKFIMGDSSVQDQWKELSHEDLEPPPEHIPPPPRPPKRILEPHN
Protocol: Binding assays were carried out in triplicate at 12 different PTP1B concentrations using a Schleicher & Schuell Milliblot™ apparatus with 0.45 μm BioRad TransBlot® nitrocellulose layered on top of a Hybond™-N+nylon transfer membrane. Radiolabelled RNA at 100-500 pM was heated to 75° C. for 3 minutes then cooled to room temperature before mixing with a 2× serial dilution of the target and also a no-target control. 150 μL of the mixtures at each of the 12 enzyme concentrations were pre-incubated at room temperature for 60 minutes before applying to the pre-washed membrane to allow the RNA complex to reach equilibrium (Waley, S. G. (1993) The Biochemical journal 294 Pt 1, 195-200). Following addition of 40 μL per well of each mixture to three separate wells of the Milliblot™ apparatus, the filter was washed 3 times. The dilutions and all washes used the binding buffer described above. Activity of the filters was measured using a FujiFilm BAS-1800II phosphorimager and relative density used to estimate the fraction of radiolabelled RNA retained on the nitrocellulose and nylon membranes.
A binding assay with a concentration of 2 nM of the radiolabelled C13M21 nucleic acid ligand against PTP1B-GST was performed with the protein concentration ranging from 1 nM to 512 nM in a 2:1 serial dilution. […]

[4] = molecular target: T1, PTP1B; test: inhibition; parent about 35 nM; details: tags: N-terminal His6; R&D Systems 1366-PT-050
Protocol: Several single-base modifications of the M21 nucleic acid ligand were also tested to determine whether the changes would affect the level of inhibition. With reference to the postulated secondary structure shown in FIG. 9, the sequence at each position on the unpaired regions was modified at positions 31 through 37 and positions 42 through 46. […] From this, it appears that the other nucleotides are either critical in the contact with the PTP1B molecule or in shaping the nucleic acid ligand into a conformation that binds with the PTP1B.

[5] = molecular target: T1, PTP1B; test: inhibition; 125 mM NaCl, DiFMUP; details: tags: N-terminal His6; R&D Systems 1366-PT-050; hairpin
Protocol: as §1

[6] = molecular target: T1, PTP1B; test: inhibition; 20 mM NaCl, 5 uM DiFMUP; details: tags: N-terminal His6; R&D Systems 1366-PT-050; hairpin

B1: C13M21 (ssRNA)
RNA: GGGAAUUCUGUGAUCAAUUUGGCAAUCCGCCACACGAGUUC
**Q.** Which Ki [1] does the source give for B1 here?
**A.** 0.3 nM

**Q.** And the Ki [2]?
**A.** 45 nM

**Q.** What about the Kd [3] of the same binder?
**A.** 28 nM

B2: C13M21 G54U (ssRNA)
RNA: GGGAAUUCUGUGAUCAAUUUGGCAAUCCGCCACACUAGUUC
modifications: [36]
**Q.** B2 was tested. Which Ki [4] did it give?
**A.** 48 nM

B3: C9 shortened to M21 range (ssRNA)
RNA: GGGAAUUCUGUGAUUAAUUUGGCAAUCCGCCACACUAGUUC
modifications: [15,36]
**Q.** For B3, which Ki [4] is on record?
**A.** ~250 nM

B4: C13 (ssRNA)
RNA: GGGAAUGGAUCCACAUCUACGAAUUCUGUGAUCAAUUUGGCAAUCCGCCACACGAGUUCACUGCAGACUUGACGAAGCUU
**Q.** Which results are given for B4?
**A.** Ki [5]: 7 nM; Ki [6]: < 0.1 nM
